8 molecules from patent US20170320956A1 (KYMAB, published 2017) can be followed below.

To fix the notation:
B1: 29C09 (purified from hybridoma supernatant) (antibody, V domains shown)
VH: QEQLVQSGAEVKKPGASVKVSCKASGYTFTSYDINWVRQATGQGLEWMGWMNPNSGYTGYAQKFQGRVTMTRNTSIRTVYMELSSLRSEDTAVYYCARGGETFDIWGQGTMVTVSS
VL: SYELTQPPSVSVSPGQTARITCSGDALPKKYAYWYQQKSGQAPVLVIYEDSKRPSGIPERFSGSSSGTMATLTISGAQVEDEADYYCYSTDSSDNHSVFGTGTKVTVL
notes: Murine constant / human variable chimeric IgG, lambda, Protein G purified from hybridoma supernatant
B2: 14B09 (purified from hybridoma supernatant) (antibody, V domains shown)
VH: QVQLVQSGAEVKKPGASVKVSCRASGYTFTSYLMHWVRQAPGQRLEWMGWINVGNGNTKYSQKFQGRVTITRDTSASTAYMELSGLRSEDTAVYYCARNYYNWFDPWGQGTLVTVSS
VL: QSALTQPASVSGSPGQSITISCTGTSSDVGGYNYVSWYQQHPGKAPKLMIYDVSKRPSGVSNRFSGSKSGNTASLTISGLQAEDEADYYCFSYAGSSTVVFGGGTKLTVL
notes: as for B1
B3: 13H04 (purified from hybridoma supernatant) (antibody, V domains shown)
VH: QVQLVQSGAEVKKPGASVKVSCKASGYTFTSYGISWVRQAPGQGLEWMGWISAHNANTNYAQKLQGRVTMTTDTSTSTAYMELRSLRSDDTAMYYCARLYRNWFDPWGQGTLVTVSS
VL: B2 VL with F91C, V99L, V100L
notes: as for B1
B4: 31A10 (purified from hybridoma supernatant) (antibody, V domains shown)
VH: QVQLQESGPGLVKPSGTLSLTCAVSGGSISSINWWNWVRQPPGKGLEWIGEVSHSGITNYNPSLKSRVTMSVDKAKNQFSLKLNSVTAADTAVYYCARERAVADYHGMDVWGQGTTVTVSS
VL: AIQLTQSPSSLSASVGDRVTITCRASQGISSALAWFQQKPGKPPKLLIFDASDLESGVSSRFSGSGSGTDFTLTISSLQPGDFATYYCQQFNSYPITFGQGTRLEIK
notes: Murine constant / human variable chimeric IgG, kappa, Protein G purified from hybridoma supernatant
B5: 42A02 (purified from hybridoma supernatant) (antibody, V domains shown)
VH: EVQLVESGGGLVQPGGSLRLSCAASGFTFSSYVMSWVRQAPGKGLEWVSVISSSGVTTYYADSVKGRFTISRDNSKNTLYLQMNSLRAEETAVYYCAKGNYGSGSFCDYWGQGTPVTVSS
VL: SYVLTQPPSVSVAPGKTARITCGGNNIGSKSVHWYQQRPGQAPILVIYYDSDRPSGIPERFSGSNSGNSATLTISRVEAGDEADYHCQVWESSSDHPVFGGGTKLTVL
notes: as for B1
B6: 144F05 (purified from hybridoma supernatant) (antibody, V domains shown)
VH: QVQLQESGPGLVKPSGTLSLTCAVSGGSISSTHWWNWVRQPPGKGLEWIGEIYHSGSTNCNPSLKSRVTISVDKSKNQFSLKMNSVTAADTAVYYCTRGGAAAGTNYGLDVWGQGTTVTVSS
VL: not shown
notes: as for B4
B7: 62C01 (purified from hybridoma supernatant) (antibody, V domains shown)
VH: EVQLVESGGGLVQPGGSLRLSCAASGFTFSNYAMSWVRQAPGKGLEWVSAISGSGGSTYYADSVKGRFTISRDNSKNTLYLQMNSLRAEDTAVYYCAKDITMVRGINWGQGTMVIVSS
VL: DIQMTQSPSSVSASVGDRVTITCRASQGISNWLAWYQQKPGKAPKLLIFAASSLQSGVPSRFSGSGSGTDFTLTISSLQPEDFATYYCQQSNSFPLTFGGGTKVEIK
notes: as for B4
B8: 31A10 in human IgG4(PE) format (antibody, V domains shown)
VH: B4 VH
VL: B4 VL

Numbering of substitutions follows the chain as printed.

The first test addresses T1, recombinant human LIGHT-214E, FLAG-tagged extracellular domain (human).
T1 chain: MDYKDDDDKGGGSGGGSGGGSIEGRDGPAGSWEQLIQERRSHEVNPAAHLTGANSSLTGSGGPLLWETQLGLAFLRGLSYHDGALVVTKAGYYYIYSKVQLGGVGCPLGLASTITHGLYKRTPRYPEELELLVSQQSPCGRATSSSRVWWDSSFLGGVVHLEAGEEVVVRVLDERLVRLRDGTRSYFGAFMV
As to the kind of experiment: cell-based or functional assay.
In the case of B1, the “HT29 IL-8 release, IC50” value stood at 0.33 nM.
As for B2, the “HT29 IL-8 release, IC50” value came to 1.31 nM.
For B3, the “HT29 IL-8 release, IC50” value was found to be 1.33 nM.
Same read-out and setting: then B4, with 0.217 nM.
Same read-out and setting: then B5, with 0.917 nM; and B6, with 2.75 nM; and B7, with 0.578 nM.

The target in a further test is T1, recombinant human LIGHT-214E, …. The test is described as follows: cell-based or functional assay. This is another data set of the same source.
Regarding B8, the “HT29 IL-8 release, IC50” value came to 0.29 nM.

Another test has as its target T2, mouse LIGHT (mouse, UniProt Q9QYH9 72-239, limits assumed).
T2 construct: also called murine LIGHT
T2 sequence (looked up): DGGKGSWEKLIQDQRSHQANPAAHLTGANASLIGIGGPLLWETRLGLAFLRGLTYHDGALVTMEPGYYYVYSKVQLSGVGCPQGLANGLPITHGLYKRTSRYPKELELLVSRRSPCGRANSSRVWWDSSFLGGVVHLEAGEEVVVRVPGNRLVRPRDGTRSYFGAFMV
The test is described as follows: SPR ProteOn, mAb captured on anti-mouse IgG.
For the molecule B1, the binding result is listed as “no binding”.
Same read-out and setting: the entry for B2 is “no binding”.
On the same count and under the same terms, the entry for B3 is “no binding”; for B5 it is “no binding”.
On the same count and under the same terms, the entry for B6 is “no binding”.

The next test has as its target T3, rabbit LIGHT protein, FLAG-tagged extracellular domain (rabbit).
T3 chain: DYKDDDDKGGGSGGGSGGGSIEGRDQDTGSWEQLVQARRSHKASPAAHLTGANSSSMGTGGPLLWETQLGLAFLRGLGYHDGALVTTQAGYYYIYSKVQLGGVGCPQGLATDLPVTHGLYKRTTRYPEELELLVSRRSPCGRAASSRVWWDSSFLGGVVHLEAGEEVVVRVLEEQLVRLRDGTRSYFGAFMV
The test is described as follows: SPR ProteOn, mAb captured on anti-human IgG, 25 C. How it is done: This created a capture surface suitable for capturing human antibodies. The LIGHT antibodies were captured on this anti-human IgG surface, and then human and rabbit LIGHT proteins were passed over captured LIGHT Abs at a concentration of 200 nM. A buffer injection was used to double reference the LIGHT binding sensorgrams. The assay was run at 25° C., using HBS-EP as running buffer.
Consider B8, for which the binding result is reported as “binds”.

For another test, the target named is human LIGHT-214E, full length, expressed on the surface of CHO-S cells (human, UniProt O43557 1-240). The test is described as follows: flow cytometry, CHO-S cells expressing hLIGHT-214E. A general note: Flow cytometry measures light scatter and fluorescence of single cells or particles in a stream.
Consider B1, for which the binding result is given as “binds”.
Consider B2, for which the binding result is given as “binds”.
Regarding B3, the binding result is “binds”.
Consider B4, for which the binding result was “binds”.
In the case of B5, the binding result is on record as “binds”.
Same read-out and setting: the entry for B6 is “binds”; for B7 it is “binds”.

A further test has as its target T1, recombinant human LIGHT-214E, …. As to the kind of experiment: HTRF competition, HVEM-Fc binding to Flag-hLIGHT-214E. How it is done: (§1) The following methods were carried out with a titration of inhibitor in order to establish the clone potency as measured by IC50 values in the assay. 5 μl of Flag-tagged hLIGHT (in-house) diluted to 2.5 nM final concentration (10 nM working concentration) in HTRF buffer with 5 μl of a titration of antibody purified from hybridoma supernatant diluted in HTRF assay buffer from 300 nM final (1200 nM working concentration) was pre-incubated for 1 hour at room temperature. To wells used to define total binding, 5 μl of LIGHT (10 nM working, 2.5 nM final) and 5 μl of hybridoma maintaining media (HMM,)) were added. To wells used to define non specific binding (receptor only) 10 μl of HMM was added. Total and non specific binding wells were pre-incubated for 1 hr at RT in the same plate as wells containing titration of inhibitor.
(§2) LIGHT receptor was diluted in HTRF assay buffer and added to all wells, 5 μl/well of HVEM-Fc or LTβR-Fc (R&D systems) at 1.2 nM for HVEM (0.3 nM final) and 0.4 nM for LTβR (0.1 nM final).
In general terms: In TR-FRET formats the signal depends on donor and acceptor labels being close together.
The term IC50 denotes the concentration that gives 50% inhibition. Consider B1, for which the IC50 worked out at 0.922 nM.
Turning to B2, the IC50 came out at 0.895 nM.
The same measure, in the same setting: then B3, with 1.09 nM; and B4, with 0.662 nM; and B5, with 0.898 nM.
On the same count and under the same terms, then B6, with 1.34 nM.
With B7, the 50% inhibitory concentration (IC50) was 1.6 nM.

The target is the same in a further test. As to the kind of experiment: HTRF competition, LTβR-Fc binding to Flag-hLIGHT-214E. The protocol: as §1, §2
With B1, the half-inhibitory concentration (IC50) worked out at 1.55 nM.
Still for that read-out and setting: the figure for B2 is 1.57 nM; for B3 it is 1.97 nM.
The same measure, in the same setting: then B4, with 1.45 nM; and B5, with 1.65 nM; and B6, with 3.32 nM.
Still for that read-out and setting: then B7, with 2.66 nM.

The target is the same in the next test. As to the kind of experiment: HTRF competition, AlexaFluor 647 HVEM-Fc binding to Flag-hLIGHT-214E. How it is done:
as §1
(§3) The final IgG4(PE) format lead panel was analysed for neutralization activity as in Example 3. Antibodies were tested for their ability to neutralize LIGHT binding to its receptors, HVEM and LTβR, in an HTRF assay. Antibodies were also tested for their ability to neutralize LIGHT-induced IL-8 release by HT29 colon carcinoma cells.
(§4) HTRF assays were performed as per Example 3, with the following modifications: HVEM-Fc and LTβR-Fc were labelled with AlexaFluor 647, and an anti-Flag K antibody (Cisbio) was used for detection.
Take B8: the 50% inhibitory concentration (IC50) was 1.15 nM.

A further test shares this target. The test is described as follows: HTRF competition, AlexaFluor 647 LTβR-Fc binding to Flag-hLIGHT-214E. The protocol:
as §1, §3, §4
As to B8, the IC50 stood at 2.19 nM.

A further test shares this target. The test is described as follows: SPR ProteOn, mAb captured on anti-mouse IgG, LIGHT 256 nM, 25 C, apparent affinity. How it is done: (§5) SPR analysis was carried out using the ProteOn™ XPR36 Array System (BioRad). Anti-mouse IgG (GE Healthcare BR-1008-38) was immobilised on a GLC biosensor surface using amine coupling, the surface was then blocked using 1M ethanolamine. […] Apparent affinities for the LIGHT-antibody interaction were determined using the 1:1 model inherent to the ProteOn XPR36 analysis software. The assay was run using HBS-EP (Teknova) as running buffer and carried out at 25° C.
With B1, the Kd was determined as 0.311 nM.
On the same count and under the same terms, then B2, with 0.492 nM.
As for B3, the Kd amounted to 0.881 nM.
In the case of B5, the Kd turned out to be 0.062 nM.
Same read-out and setting: the figure for B6 is 3.25 nM; for B7 it is 1.02 nM.

In another test the target is T4, recombinant human LIGHT-214K, FLAG-tagged extracellular domain (human).
T4 construct: the IgK leader peptide is marked only by underlining (not visible here), so its residues were not removed; Trimer
T4 chain: T1 chain with E166K
The description is as above. The protocol:
as §5
On to B1, for which the Kd amounted to 0.605 nM.
Same read-out and setting: then B2, with 3.37 nM; and B3, with 1.57 nM.
On to B4, for which the Kd is 0.349 nM.
Still for that read-out and setting: the figure for B5 is 0.161 nM.
The same measure, in the same setting: the figure for B6 is 5.78 nM; for B7 it is 23.6 nM.

Another test has as its target T5, recombinant cynomolgus monkey LIGHT, FLAG-tagged extracellular domain (cynomolgus (Macaca fascicularis), UniProt E9NVF7 59-240).
T5 construct: extracellular domain; also called cynomolgus LIGHT; cyno LIGHT
The description is as above. The protocol:
as §5
Turning to B1, the Kd worked out at 2.28 nM.
Same read-out and setting: then B2, with 0.156 nM.
B3: the Kd amounted to 0.561 nM.
Same read-out and setting: then B5, with 0.084 nM; and B6, with 2.89 nM.
Regarding B7, the Kd was 1.64 nM.
